Data reported in article PMC13598245.
pKd: −log10 of the molar value.

Experiments:
[1] = target: 14-3-3η (purified recombinant) (UniProt P68510); experiment: fluorescence anisotropy, FITC peptide; conditions: reference: unphosphorylated peptide …
[2] = target: GST-tagged 14-3-3η (coexpressed with MAST1^DK) (UniProt Q04917); experiment: cross-linking + other: mass photometry; complex stabilised by glutaraldehyde cross-linking, then mass photometry (25 to 50 nM, 50 mM HEPES pH 7.4, 150 mM NaCl, 1 mM TCEP)
[3] = target: GST-tagged 14-3-3η (coexpressed with MAST1^DK) (UniProt Q04917); experiment: SEC; complex coexpressed in Sf9, affinity-purified by the GST tag of 14-3-3η, then analytical SEC (Superdex 200 Increase 3.2/300, 50 mM HEPES pH 7.4, 150 mM NaCl, 1 mM TCEP, 4 °C); Coomassie SDS-PAGE of fractions with gel densitometry
[4] = target: 14-3-3η (endogenous) (UniProt Q04917); experiment: GFP-Trap affinity purification, mass spectrometry; conditions: sites S90
[5] = target: MAST1^DK ΔS90 ΔS161 (Mus musculus); experiment: FP
[6] = target: 14-3-3η (purified, recombinant) (UniProt Q04917); experiment: cross-linking + other: mass photometry; complex stabilised by glutaraldehyde cross-linking, then mass photometry (25 to 50 nM, 50 mM HEPES pH 7.4, 150 mM NaCl, 1 mM TCEP)
[7] = target: 14-3-3η (purified, recombinant) (UniProt Q04917); experiment: SEC; complex formed in vitro: equimolar MAST1^D p-S90 and 14-3-3η, 30 min at room temperature, then analytical SEC (Superdex 200 Increase 3.2/300, 50 mM HEPES pH 7.4, 150 mM NaCl, 1 mM TCEP, 4 °C; 50 μL of 30 μM); Coomassie SDS-PAGE of fractions with gel densitometry

14-3-3η (purified, recombinant), sequence (Q04917 whole entry): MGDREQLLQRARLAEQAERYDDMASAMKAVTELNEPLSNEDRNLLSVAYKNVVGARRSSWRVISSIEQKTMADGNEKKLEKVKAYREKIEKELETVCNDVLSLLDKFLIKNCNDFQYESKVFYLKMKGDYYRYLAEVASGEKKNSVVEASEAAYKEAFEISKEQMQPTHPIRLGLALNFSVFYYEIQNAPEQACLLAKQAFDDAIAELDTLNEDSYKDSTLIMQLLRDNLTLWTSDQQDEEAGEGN
GST-tagged 14-3-3η (coexpressed with MAST1^DK), sequence (Q04917 whole entry): as above
MAST1^DK ΔS90 ΔS161 (Mus musculus), sequence (Q9R1L5 whole entry S90del/S161del): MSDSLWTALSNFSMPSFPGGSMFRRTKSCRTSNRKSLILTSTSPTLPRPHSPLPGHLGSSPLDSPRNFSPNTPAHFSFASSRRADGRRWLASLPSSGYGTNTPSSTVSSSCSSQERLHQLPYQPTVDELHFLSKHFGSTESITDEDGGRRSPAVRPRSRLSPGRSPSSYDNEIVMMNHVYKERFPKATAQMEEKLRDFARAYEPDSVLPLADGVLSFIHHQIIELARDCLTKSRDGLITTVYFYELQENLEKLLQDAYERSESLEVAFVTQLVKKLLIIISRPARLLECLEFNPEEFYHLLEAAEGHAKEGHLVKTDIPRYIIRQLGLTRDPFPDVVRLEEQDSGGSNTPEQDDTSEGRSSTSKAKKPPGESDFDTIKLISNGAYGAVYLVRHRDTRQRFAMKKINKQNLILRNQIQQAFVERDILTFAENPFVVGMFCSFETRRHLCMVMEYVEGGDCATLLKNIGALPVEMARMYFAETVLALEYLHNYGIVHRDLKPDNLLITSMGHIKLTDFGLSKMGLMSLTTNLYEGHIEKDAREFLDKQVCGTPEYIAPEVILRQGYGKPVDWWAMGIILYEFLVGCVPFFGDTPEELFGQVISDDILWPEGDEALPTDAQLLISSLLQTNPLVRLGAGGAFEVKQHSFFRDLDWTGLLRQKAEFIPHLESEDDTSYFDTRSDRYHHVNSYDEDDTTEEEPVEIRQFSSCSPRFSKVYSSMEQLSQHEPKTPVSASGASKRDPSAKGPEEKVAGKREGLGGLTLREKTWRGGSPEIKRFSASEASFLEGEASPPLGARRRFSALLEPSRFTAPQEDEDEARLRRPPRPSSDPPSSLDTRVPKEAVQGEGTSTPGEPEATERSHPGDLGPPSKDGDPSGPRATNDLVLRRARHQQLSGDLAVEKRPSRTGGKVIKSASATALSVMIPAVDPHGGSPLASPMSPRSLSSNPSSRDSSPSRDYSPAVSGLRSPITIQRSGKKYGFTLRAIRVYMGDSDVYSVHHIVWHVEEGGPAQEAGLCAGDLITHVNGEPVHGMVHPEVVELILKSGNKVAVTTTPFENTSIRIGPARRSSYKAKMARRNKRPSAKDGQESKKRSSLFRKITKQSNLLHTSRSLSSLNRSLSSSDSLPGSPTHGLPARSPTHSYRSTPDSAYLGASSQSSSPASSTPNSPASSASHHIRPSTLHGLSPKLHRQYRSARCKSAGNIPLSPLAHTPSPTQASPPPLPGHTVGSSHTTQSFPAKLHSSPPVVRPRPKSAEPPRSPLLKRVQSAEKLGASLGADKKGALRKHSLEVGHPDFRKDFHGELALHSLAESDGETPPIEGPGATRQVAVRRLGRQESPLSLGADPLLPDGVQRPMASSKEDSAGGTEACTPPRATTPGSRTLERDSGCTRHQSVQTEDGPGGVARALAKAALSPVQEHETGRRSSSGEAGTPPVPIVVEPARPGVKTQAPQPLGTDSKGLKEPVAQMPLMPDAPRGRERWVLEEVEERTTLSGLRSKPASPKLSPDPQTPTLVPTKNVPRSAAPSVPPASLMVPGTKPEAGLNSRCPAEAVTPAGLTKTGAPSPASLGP

MAST1 156-168 (from UniProt Q9R1L5) p-S161 peptide
binding against the reference ([1]; sites S161): gained

MAST1 85-97 (from UniProt Q9R1L5) p-S90 peptide
binding against the reference ([1]; sites S90): gained

MAST1^DK (copurified with 14-3-3η) (from UniProt Q9R1L5 1-1570) (domain or fragment)
stoichiometry N (MAST1:14-3-3η) [2]: 0.5 | stoichiometry N (MAST1:14-3-3η) [3]: 0.5

MAST1 MAST1DKP (from UniProt Q9R1L5) S90A
binding against the reference ([4]; reference: wild type): weaker

MAST1 MAST1DKP (from UniProt Q9R1L5) S90A S161A
binding against the reference ([4]; reference: S161A single mutant (S90 intact)): weaker

MAST1^153-166 WT
pKd [5]: 2.93

MAST1^D p-S90 (from UniProt Q9R1L5 1-1570) (domain or fragment)
stoichiometry N (MAST1:14-3-3η) [6]: 0.5 | stoichiometry N (MAST1:14-3-3η) [7]: 0.5
